“Also recorded” adds a separate entry of the source.
Columns and labels:
IL-6 [1] = test: IL-6 secretion by T-24 carcinoma cells (ELISA); format: cell-based, human; conditions: 24 hours
Procedure: (§1) Primary cultures of human intestinal microvascular endothelial cells (HIMEC) isolated from normal jejunal mucosa/submucosal tissue were prepared as described (Strong et al., Gastroenterology 114:1244-1256 (1998)). The HIMEC were cultured in fibronectin-coated plasticware in MCDB medium (Sigma) supplemented with 20% FBS, 90 μg/ml heparin and 50 μg/ml endothelial cell growth factor (Sigma). T-24 cells (ATCC Accession No. HTB-4) were cultured in M199 medium supplemented with 10% FBS. PBMC were purified by Ficoll-Paque gradient as described (Current Protocols in Immunology, pp 7.1.1-7.1.2). Vero cells (ATCC Accession No. CCL-81) were grown in RPMI medium with 5% Nu serum and infected with the Silvio X-10/4 of T. cruzi as described previously (Chuenkova et al., J. Exp. Med. 181:1693-1703 (1995)).
(§2) Endothelial cells and T-24 cells were plated on 24-well plates at a density of 1×10^3 cells/well, while peripheral blood mononuclear cells (PBMC) were plated in the similar wells at 1×10^6/well. Triplicat cultures of cells were incubated test agents for a predetermined amount of time. […] Cytokines and chemokines released in the culture supernatants were measured by ELISA assay following the instructions of the manufacturer (Endogen). The cytokines tested were IL-1β, IL-4, IL-8, […], IL-12, IFN-γ, TNF-α, and the chemokines RANTES and MCP-1. Negative controls were cells incubated in medium containing polymixin B at 10 μg/ml, and positive controls were cells incubated with bacterial LPS at the low ng/ml range (for PBMC or HIMEC) or in the μg/ml range for carcinoma T-24 cells. In some experiments, IL-1β or TNFα were used as positive control for cytokine release.

Akt kinase [2] = test: Immunodetection of activated Akt in PC12 cells; format: cell-based; conditions: Western blot, phospho-Akt (Ser 473) antibody; 100 ng/ml
Procedure: PC12 cells were deprived of serum for 24-48 hours, stimulated with TS, TS-F or LTR for 2, 5 or 10 minutes and immediately lysed with 2% SDS. In studies using the PI-3 kinase inhibitor, LY294002 (LY), cells were pre-treated with the inhibitor (1 μM) for 30 min prior to the addition of TS-F or TS. The proteins in the cell lysate were separated in SDS-10% polyacrylamide gels, transferred to nitrocellulose membrane (Bio-Rad) and the phosphorylated form of protein kinase Akt was detected with phospho-Akt (Ser 473) antibody (New England BioLabs, Beverly, Mass.), followed by alkaline phosphatase-conjugated secondary antibody (Promega, Madison, Wis.). Bands corresponding to phospho-Akt (60 kDa) were quantified using a scanning densitometer (Bio-Rad).

Trans-sialidase assay = format: biochemical
Procedure: The trans-sialidase assay was performed as described (Scudder, P. et al., J. Biol. Chem., 268:9886-9891 (1993)) with slight modifications. Various amounts of intact enzyme or enzyme fragments were added to 50 mM PBS, Ph 7.2, containing 15% fetal calf serum and […] of [^14C]N-acetyllactosamine (4×10^5 dpm), 50 μg BSA and 0.02% NaN3 in a volume of 60 μl. After incubation for a predetermined amount of time at room temperature, the reaction mixture was diluted to 1.0 ml with distilled water and applied to a column containing 1.0 ml Q-Sepharose equilibrated with water. Sialylated product was eluted with 1 M NaCl and quantified by scintillation counting.
TS enzymatic activity was measured by the sialylation of the acceptor ^14C-labeled N-acetyllactosamine on anion exchange resins (Scudder, P. et al., J. Biol. Chem. 268:9886-9891 (1993)). Recombinant TSA-1, was expressed on insect sf9 cells and purified from serum-free medium by ion exchange chromatography (monoQ) and preparative SDS-PAGE (Wrightsman, R. A. et al., J. Immunol., 153:3148-3154 (1994).

Akt kinase [3] = test: Immunodetection and kinase assay of activated Akt in Schwann cells
Procedure: Schwann cells, grown in 10% FCS to 70% confluency in 6-well plates, were switched to DMEM containing 0.1% FCS for 48 hours to reduce basal Akt phosphorylation. Then the cells were placed in serum-free DMEM medium for 2 hours and challenged with TS, CD or other test factors for predetermined periods of time. When the PI-3 kinase inhibitor LY294002 (Sigma) was used, the inhibitor was added to the serum-starved cells 30 minutes before challenge with TS or CD. Cell samples were lysed with lysis buffer (20 mM Tris, pH 7.5, 150 mM NaCl, 1 mM EDTA, 1% Triton X-100 (t-Octylphenoxypolyethoxyethanol), 2.5 mM sodium pyrophosphate, 1 mM glycerophosphate, 1 mM Na3VO4, 1 μg/ml leupeptin and 1 mM Phenymethylsulfonyl fluoride (PMSF)). Samples (40 μg) were run on 10% SDS-Page, blotted to nitrocellulose paper and analyzed by Western (immuno) blot with monoclonal antibody specific for P-Ser473 of Akt (New England Biolabs). Reaction was visualized by chemiluminescence using the ECL kit (New England Nuclear).
Enzymatic activity of Akt kinase was assessed using the synthetic substrate GSK-3α-fusion protein (Cell Signaling Technology, Beverly, Mass.), according to the protocol provided by Cell Signaling Technology. In short, lysates of Schwann cells subjected to various treatments were immunoprecipitated with Akt antibody coupled to agarose beads, and the immunoprecipitates incubated with GSK-3α-fusion protein as the substrate for Akt phosphorylation, in the presence of 200 μM ATP. Phosphorylation of GSK-3 fusion protein was detected by Western blot using phospho-GSK-3αβ (Ser21/9)-specific antibody (Cell Signaling Technology). The reaction product was identified by chemiluminescence using the ECL kit (New England Nuclear).

human Schwann cells = test: Serum withdrawal-induced apoptosis of Schwann cells (DAPI); format: cell-based
PC12 cells = test: Protection of PC12 cells from apoptosis induced by trophic factor withdrawal (DAPI, TUNEL); format: cell-based; conditions: serum-free RPMI-1640/0.2% BSA, 17 hours, DAPI or TUNEL
Description: PC12 cells were obtained from ATCC (Manassas, Va. (Accession No. CRL-1721)) and cultured on collagen-coated dishes in RPMI 1640 supplemented with 10% horse serum and 5% fetal bovine serum (Greene, L., and Tishler, A., Proc. Natl. Acad. Sci. USA, 73:2424-2428 (1976)). For differentiation and survival experiments, cells were washed three times in serum-free RPMI/0.2% BSA, plated in the same medium in collagen-coated plastic dishes at 2×10^5/ml, without and with growth factors, TS, recombinant proteins, synthetic peptides, for the time and concentrations indicated in the Figures.
Cell staining with 4,6-diamino-2-phenylindole (DAPI). Cells were fixed with 4% formaldehyde in PBS for 5 minutes, washed with PBS, stained with 10 μg/ml DAPI (Sigma) for 2 minutes, washed with PBS, and visualized under UV light using a fluorescent microscope. About 300-400 cells were examined under the microscope to determine the percentage of apoptotic cells.
Cell DNA nick end labeling (TUNEL) (Gavrieli, Y. et al., J. Cell. Biol., 119:493-501 (1992)) assay was performed using a kit purchased from Boehringer Mannheim as described by the manufacturer.
Protection against apoptosis of PC12 cells in serum-free medium containing a test agent (agent N) (e.g., protection induced by TS, TS fragments, NGF or other growth factors), was calculated by the formula: 100%−[(apoptosis(%) of cells kept in RPMI containing test agent N÷apoptosis (%) of cells kept in RPMI)×100%]. Testing the effect of Wortmannin (Sigma) and LY294002 (Sigma) in inhibiting the neuroprotection of TS was performed following the protocol described by others (Yao, R., and Cooper, G., Science, 267:2003-2006 (1995); D'Mello, et al., J. Neurosci., 17:1548-1560 (1997)). In brief, PC12 cells were switched from growth medium to RPMI without and with TS or various other growth factors. After 24 hours, Wortmannin and LY294002 were added to the cultures. After another 24 hours, cells were examined for apoptosis by the DAPI assay, as above.

neuroblastoma N18 cells = test: Neurite outgrowth assay in N18 cells; format: cell-based; conditions: soluble or immobilized on plastic (500 μg/ml coating), 17 hours
Procedure: 96-well microtiter plates were coated overnight at 4° C. with the TS or peptides or fragments thereof, or with control proteins laminin (Ln) or bovine serum albumin (BSA) at 500 μg/ml. After removing the compounds, the plates were further incubated with 1% BSA for 1 hour at room temperature and immediately used as substratum for PC12 or N18 (Prasad, K., Biol. Rev. Camb. Philos. Soc., 66:431-451 (1991)) cells in serum-free RPMI/0.2% BSA. Neurite outgrowth was measured using a phase-contrast microscope 17 hours later.

IL-6 [4] = test: IL-6 secretion by PBMC (ELISA); format: cell-based, human; conditions: 24 hours
Procedure: as §1, §2
TR peptides (Table 2) were synthesized at the Tufts Synthesis Facility (Boston, Mass.). Each peptide was purified by HPLC, and the number of amino acids and molecular weight of each peptide verified by mass spectrometry. Peptides were dissolved in growth medium (10% FCS in RPMI) and added at various concentrations to 1×10^6 PBMC/well in 24-well plates. After 24 hours, IL-6 was assayed by ELISA in the conditioned supernatants.

B1: TS-F: recombinant full catalytic domain of TS, amino acid residues 33-666 (protein, listed as Trypanosoma cruzi)
chain: ETQIAIKNSRVSSVSRVVDPTVIVKGNKLYVLVGSYYSSRSYWSSHGDARDWDILLAVGEVTKSTAGGKITASIKWGSPVSLKKFFPAEMEGMHTNQFLGGAGVAIVASNGNLVYPVQVTNKRKQVFSKIFYSEDDGKTWKFGKGRSDFGCSEPVALEWEGKLIINTRVDWKRRLVYESSDMEKPWVEAVGTVSRVWGPSPKSNQPGSQTSFTAVTIEGMRVMLFTHPLNFKGRCVRDRLNLWLTDNQRIYNVGQVSIGDENSAYSSVLYKDDKLYCLHEINTDEVYSLVFARLVGELRIIKSVLRSWKNWTATCPAFAPLLIQPLRRQRVVVVPLSPRLVLLAFCRQRLPKRMGGSYRCVNASTANAERVRNGLKFAGVGGGALWPVSQQGQNQRYRFANHAFTLVASVTIHEAPRAASPLLGASLDSSGGKKLLGLSYDEKHQWQPIYGSTPVTPTGSWETGKRYHLVLTMANKIGSVYIDGELLEGSGQTVVPDGRTPDISHFYVGGYKRSDMPTISHVTVNNVLLYNRRQLNTEEIRTLFLSQDLIGTEAHMDSSSDSSAHSTPSTPADSSAHSTPSTPVDSSAHSTPSTPADSSAHGTPSTPVDSSAHGTPSTPADSSAHGTPSTPVDS
IL-6 secretion by T-24 cells (IL-6 [1]): did not promote IL-6 release from T-24 cells | phosphorylation (activation) of Akt kinase in PC12 cells (Akt kinase [2]): effective in activating Akt | trans-sialidase (enzymatic) activity (Trans-sialidase assay): enzymatically active | Akt phosphorylation in Schwann cells transfected with dominant negative PTEN mutant (Akt kinase [3]; CD 500 ng/ml): did not detectably enhance Akt phosphorylation | Akt phosphorylation in Schwann cells transfected with empty vector (neo) (Akt kinase [3]; CD 500 ng/ml): boosted levels of phospho-Akt | time within which CD activated Schwann cell Akt kinase (Akt kinase [3]; CD 500 ng/ml): 1 to 5 min | transience of Akt activation in Schwann cells (Akt kinase [3]; CD 500 ng/ml): phospho-Akt not detected after 15 min | Akt kinase activity in control GFP-transfected Schwann cells (Akt kinase [3]; CD 500 ng/ml, 2 minutes, GSK-3α substrate): stimulation of Akt activity | Akt kinase activity in Schwann cells over expressing AktKI (Akt kinase [3]; CD 500 ng/ml, 2 minutes, GSK-3α substrate, listed as CD): inability of CD to enhance endogenous Akt enzymatic activity; also recorded: did not activate Akt kinase | Akt phosphorylation in Schwann cells over expressing PTEN (Akt kinase [3]; CD 500 ng/ml, listed as CD): did not result in the generation of phospho-Akt; also recorded: did not induce phosphorylation of Akt kinase | phosphorylation (activation) of Akt kinase in Schwann cells (Akt kinase [3]; Western blot P-Akt (Ser473), listed as CD): induced transient phosphorylation of Akt kinase | survival of Schwann cells transfected with dominant negative PTEN mutant (pG129R) (human Schwann cells; CD 500 ng/ml): did not detectably enhance Akt phosphorylation and survival | survival of control Schwann cells transfected with GFP vector (human Schwann cells; CD 500 ng/ml, serum-free, 48 hours): did increase survival of the cells | survival of Schwann cells over expressing kinase-inactive Akt (AktKI) (human Schwann cells; CD 500 ng/ml, serum-free, 48 hours, listed as CD): did not increase survival of the cells; also recorded: did not promote survival | fragmented nuclei in Schwann cells transfected with empty vector (neo) (human Schwann cells; CD 500 ng/ml, serum-starved): decreased the number of fragmented nuclei by about ten-fold | rescue from apoptosis of Schwann cells over expressing PTEN (human Schwann cells; CD 500 ng/ml, listed as CD): did not rescue cells from apoptotic death; also recorded: did not rescue Schwann cells that over expressed PTEN from apoptosis | inhibition of serum withdrawal-induced apoptosis of Schwann cells (human Schwann cells; serum-free DMEM, 24-72 hours, listed as CD): protected Schwann cells against apoptosis; also recorded: nearly as effective in protecting Schwann cells from apoptosis as 2% serum; also recorded: protected human Schwann cells from apoptosis; also recorded: nearly as effective as 2% serum at inhibiting apoptosis; also recorded: dose-dependent inhibition of serum withdrawal-induced apoptosis | protection of PC12 cells from apoptosis induced by trophic factor withdrawal (PC12 cells): PC12 cell survival being induced by TS-F | neurite outgrowth in N18 cells (neuroblastoma N18 cells): induced neurite outgrowth to about the same extent as the intact enzyme

B2: TS-154: recombinant catalytically active trans-sialidase construct with 5 tandem repeat units (protein, listed as Trypanosoma cruzi)
chain: KKKQVFSKIFYSEDEGKTWKFGEGRSDFGCSEPVALEWEGKLIINTRVDYRRRLVYESSDMGNSWVEAVGTLSRVWGPSPKSNQPGSQSSFTAVTIEGMRVMLFTHPLNFKGRWLRDRLNLWLTDNQRIYNVGQVSIGDENSAYSSVLYKDDKLYCLHEINSNEVYSLVFARLVGELRIIKSVLQSWKNWDSHLSSICTP
IL-6 secretion by PBMC (IL-6 [4]): as powerful as enzymatically-inactive TS-H32 in stimulating IL-6 secretion | IL-6 secretion by T-24 cells (IL-6 [1]): as powerful as enzymatically-inactive TS-H32 in stimulating IL-6 secretion | trans-sialidase (enzymatic) activity (Trans-sialidase assay): enzymatically-active

Source: patent US20090117593A1, “T. Cruzi-derived neurotrophic agents and methods of use therefor” (Tufts University, priority 2006, published 2009)
